Numbered stars: 1 amine (or outer) side, 2 acyl side, 3 side chain; on linkers, the order of the positions; unused ones are H or OH. Bridge positions count the residues as written; N and C are the ends. Square brackets hold non-standard residues; d marks the D form. Primed or numbered codes have the meaning given here. Ends that are not written are not given here. * marks the point of attachment. N‑ω hexylcarbamate = hexyl carbamate on the ω-nitrogen of the arginine side chain, CCCCCCOC(=O)*; mXylyl = xylyl linker from dibromoxylene joining the two cysteines; mXylyl″ = dibromoxylene linker (meta) joining the cysteines; 4‑BZA = 2-amino-3-(4-carbamimidoylphenyl)propanoic acid; des‑NH2 = missing amino-terminal amine group; pXylylene = c1cc(C[*:2])ccc1C[*:1]; NMeR = CN[C@@H](CCCNC(=N)N)C(=O)O; Phg(2-OMe)′ = not defined here; dPhg = N[C@@H](C(=O)O)c1ccccc1; Chg = N[C@H](C(=O)O)C1CCCCC1; Phg = N[C@H](C(=O)O)c1ccccc1; Tle = CC(C)(C)[C@H](N)C(=O)O; αMeP = C[C@@]1(C(=O)O)CCCN1; NMeS = CN[C@@H](CO)C(=O)O; 3‑BZA = not defined here; Orn = NCCC[C@H](N)C(=O)O; Ac5c = NC1(C(=O)O)CCCC1; Thp = NC1(C(=O)O)CCOCC1; Ac4c = NC1(C(=O)O)CCC1; Ac3c = NC1(C(=O)O)CC1; Aib = CC(C)(N)C(=O)O; Mpa = O=C(O)CCS
B1: R2156 (peptide)
peptide: [Mpa]SICRV-NH2
modifications: linker 1-4 via pXylylene
SMILES: CC[C@H](C)[C@@H]1NC(=O)[C@H](CO)NC(=O)CCSCc2ccc(cc2)CSC[C@@H](C(=O)N[C@@H](CCCNC(=N)N)C(=O)N[C@H](C(N)=O)C(C)C)NC1=O
B2: R2171 (peptide)
peptide: CESICRV-NH2
modifications: linker 1-5 via mXylyl″; not fully specified (residues 1, 6, N-terminus); printed as [mXylyl(1,5)](des-NH2)C-ESIC-r-V-NH2
B3: R2179 (peptide)
peptide: [Mpa][Thp]A[Chg]C[3‑BZA]V-NH2
modifications: linker 1-5 via mXylyl; reading uncertain; also: printed as [mXylyl(1,5)](des-NH2)C-AcPyr-A-Chg-C-(3-BZA)-V-NH2

Target: Activated human plasma kallikrein (Enzyme Research Laboratories, HPKa 1303) (human, UniProt P03952 20-638)
Sequence (P03952 20-638 limits assumed): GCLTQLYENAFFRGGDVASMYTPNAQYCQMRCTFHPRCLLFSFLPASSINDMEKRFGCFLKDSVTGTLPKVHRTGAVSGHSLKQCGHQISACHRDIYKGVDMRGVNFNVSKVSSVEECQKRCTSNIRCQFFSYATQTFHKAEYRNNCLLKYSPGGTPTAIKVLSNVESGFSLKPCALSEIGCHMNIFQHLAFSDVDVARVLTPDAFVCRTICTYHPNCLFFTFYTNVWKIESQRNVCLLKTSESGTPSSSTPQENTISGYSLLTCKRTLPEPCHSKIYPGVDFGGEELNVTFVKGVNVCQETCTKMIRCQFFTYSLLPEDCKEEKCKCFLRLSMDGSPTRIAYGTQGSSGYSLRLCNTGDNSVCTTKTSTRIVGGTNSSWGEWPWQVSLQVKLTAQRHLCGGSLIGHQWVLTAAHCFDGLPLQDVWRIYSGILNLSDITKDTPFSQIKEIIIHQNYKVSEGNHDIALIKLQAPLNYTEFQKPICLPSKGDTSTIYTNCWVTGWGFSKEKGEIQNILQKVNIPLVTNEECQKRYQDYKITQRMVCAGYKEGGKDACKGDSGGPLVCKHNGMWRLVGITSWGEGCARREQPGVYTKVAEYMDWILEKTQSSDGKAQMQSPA
Assay: cell-based or functional assay

| Avg. IC50 [nM] | Binder |
| --- | --- |
| 379 | [Mpa][Ac5c]A[Chg]CRV-OH (linker 1-5 via mXylyl) [R2175] |
| > 100000 | Ac-[Chg]CRVPC-NH2 (linker 2-6 via mXylyl) [R2160] |
| 39.8 | {des‑NH2}-CP[Phg(2-OMe)′]CR[Tle]-NH2 (linker 1-4 via mXylyl) [R2189] |
| 1.9 | [Mpa][Ac5c]A[Chg]CR[Tle]-NH2 (linker 1-5 via mXylyl) [R2169] |
| > 3500 | {des‑NH2}-CP[Chg]CRV-OH (linker 1-4 via mXylyl) [R2183] |
| 10.7 | {des‑NH2}-CP[Chg]CR[Tle]-NH2 (linker 1-4 via mXylyl) [R2167] |
| 2.1 | [Mpa][Ac5c]A[Chg]CR[Tle]LRY-NH2 (linker 1-5 via mXylyl) [R2170] |
| 466 | [Mpa][Aib]A[Chg]CR-{2‑amino‑3,3‑dimethylbutan‑1‑ol} (linker 1-5 via mXylyl) [R2162] |
| 1530 | B1 |
| 18.5 | [Mpa][Ac4c][Chg]CR[Tle]-NH2 (linker 1-4 via mXylyl) [R2181] |
| > 100000 | [Mpa]ESIC[Orn]V-NH2 (linker 1-5 via mXylyl) [R2172] |
| 34.1 | [Mpa][Ac3c][Chg]CR[Tle]-NH2 (linker 1-4 via mXylyl) [R2177] |
| > 14300 | [Mpa][Aib]A[Chg]CR[Tle]PC-NH2 (linker 1-5-9 via 1,3,5‑Xylyl) [R2157] |
| 13.5 | [Mpa][Thp][Chg]CR[Tle]-NH2 (linker 1-4 via mXylyl) [R2182] |
| 870 | [Mpa][Ac5c][Chg]CK[Tle]-NH2 (linker 1-4 via mXylyl) [R2174] |
| 66.3 | [Mpa]SICRV-NH2 (linker 1-4 via mXylyl) [R2155] |
| 10.1 | {des‑NH2}-CS[Chg]CR[Tle]-NH2 (linker 1-4 via mXylyl) [R2164] |
| 0.511 | [Mpa][Aib]A[Chg]CR[Tle]LRYSE-NH2 (linker 1-5 via mXylyl) [R2190] |

| Avg. IC50 [nM] | Binder |
| --- | --- |
| > 100000 | [Mpa][Thp]A[Chg]C[4‑BZA](N‑hexylcarbamate)V-NH2 (linker 1-5 via mXylyl) [R2185] |
| > 20100 | Ac-[Chg]CRVAC-NH2 (linker 2-6 via mXylyl) [R2159] |
| 3.2 | CXAGCRV ([mXylyl(1,5)](des-NH2)C-(Cyclo-L)-A-Chg-CR-V-NHCH3) [R2178] |
| 6.8 | {des‑NH2}-C[αMeP][Chg]CR[Tle]-NH2 (linker 1-4 via mXylyl) [R2180] |
| 15.2 | [Mpa][Aib][Chg]CR[Tle]-NH2 (linker 1-4 via mXylyl) [R2176] |
| > 100000 | B2 |
| 310 | [Mpa][Thp]A[Chg]C[4‑BZA]V-NH2 (linker 1-5 via mXylyl) [R2166] |
| 5.5 | [Mpa][Aib]A[Chg]CR[Tle]LRYSE(PEG 40 kDa)-NH2 (linker 1-5 via mXylyl) [R2191] |
| 11.3 | [Mpa][Ac5c][Chg]CR[Tle]-NH2 (linker 1-4 via mXylyl) [R2168] |
| 15.7 | {des‑NH2}-CP[Chg]CRV-NHMe (linker 1-4 via mXylyl) [R2184] |
| 1960 | MCESIC[NMeR]V-NH2 (linker 2-6 via mXylyl) [R2163] |
| 2230 | [Mpa]SICRV-NH2 (linker 1-4 via oXylyl) [R2161] |
| > 4700 | {des‑NH2}-CP[dPhg]CR[Tle]-NH2 (linker 1-4 via mXylyl) [R2187] |
| 3.4 | {des‑NH2}-CP[Phg]CR[Tle]-NH2 (linker 1-4 via mXylyl) [R2188] |
| 82.1 | {des‑NH2}-C[NMeS][Chg]CR[Tle]-NH2 (linker 1-4 via mXylyl) [R2165] |
| 2340 | [Mpa][Aib]A[Chg]CR[Tle]LRYC-NH2 (linker 1-5-11 via 1,3,5‑Xylyl) [R2158] |
| > 100000 | {des‑NH2}-CP[Chg]CR(N‑ω hexylcarbamate)[Tle]-NH2 (linker 1-4 via mXylyl) [R2186] |
| > 8230 | B3 |

Reference: patent publication US20150166606A1 (RA PHARMACEUTICALS, published 2015)
